These results are taken from patent US20240317849A1.

The target in the test is recombinant human NPR3 protein, extracellular domain amino acids Gly27-Ser482 fused to the Fc portion of mouse IgG2a at the NPR3 C-terminus (human; mouse) (UniProt P17342). Description: ELISA-based blocking assay on coated hNPR3-mFc, competitor biotin-hANP 200 pM; categorized as a non-blocker.
Chain of UniProt P17342 (P17342 27-482 limits assumed): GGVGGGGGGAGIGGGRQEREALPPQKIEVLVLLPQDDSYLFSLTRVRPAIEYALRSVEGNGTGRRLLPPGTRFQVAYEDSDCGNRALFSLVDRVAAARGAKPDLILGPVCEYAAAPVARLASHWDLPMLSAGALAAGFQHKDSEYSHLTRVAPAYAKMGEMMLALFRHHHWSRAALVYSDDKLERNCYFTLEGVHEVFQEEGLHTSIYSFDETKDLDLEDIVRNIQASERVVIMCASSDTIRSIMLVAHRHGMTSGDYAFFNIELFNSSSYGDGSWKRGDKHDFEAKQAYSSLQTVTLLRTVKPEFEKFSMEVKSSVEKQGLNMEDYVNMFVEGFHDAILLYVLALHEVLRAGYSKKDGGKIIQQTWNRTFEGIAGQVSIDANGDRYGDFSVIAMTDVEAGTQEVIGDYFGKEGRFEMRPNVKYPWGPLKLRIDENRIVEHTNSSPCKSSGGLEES

Turning to “non-binding human IgG1 isotype control antibody (ELISA blocking assay)”, the percent blockade is 32%.
